The text below walks through data of the Immune Epitope Database (IEDB).

pKd: −log10 of the molar value. Some results are limits rather than exact numbers.

Experiment in all cases: IEDB peptide-MHC binding, purified MHC/competitive/radioactivity; filed as Kd, often an IC50 or EC50 that approximates it; ≥ and ≤ were set here for values at or beyond the usual limits of such assays
The target of test [1] is HLA-A*31:01.
For test [2], the target named is HLA-A*33:01.
Test [3] concerns the target HLA-A*68:01.
Test [4] deals with HLA-A*03:01.
Test [5] concerns the target HLA-A*11:01.
The mark [6] stands for this setting: source organism: Dengue virus 4 Dominica/814669/1981.
Where [7] appears, read: source organism: Vaccinia virus WR.
Where [8] appears, read: source organism: Dengue virus 1 Brazil/97-11/1997.
[9] abbreviates: source organism: SARS coronavirus Tor2.
Where [10] appears, read: source organism: Dengue virus 2 Jamaica/1409/1983.
The mark [11] stands for this setting: source organism: Dengue virus 3 Martinique/1243/1999.
Where [12] appears, read: source organism: Lassa virus Josiah.

For the sequence NSALTLHWFR, the pKd in test [1] (setting [6]) was 8.45; in test [2] (setting [6]), 8.39; in test [3] (setting [6]), 8.76.

As for TSVSAKQLR, the pKd in test [4] (setting [7]) is no more than 4.11; in test [5] (setting [7]), 5.55; in test [1] (setting [7]) it was 5.59; in test [2] (setting [7]), 5.04; in test [3] (setting [7]), 7.95.

As to TYSDPLALR, the pKd in test [1] (setting [8]) is no more than 4.11; in test [2] (setting [8]) it was 8.04.

Regarding ILRNYLRLY, the pKd is 6.19 in test [4] (setting [7]); 5.34 in test [5] (setting [7]); 5.08 in test [1] (setting [7]); 5.52 in test [2] (setting [7]); no more than 4.49 in test [3] (setting [7]).

As to WLSYFVASFR, the pKd is 7.25 in test [4] (setting [9]); 7.84 in test [5] (setting [9]); 9.34 in test [1] (setting [9]); 7.87 in test [2] (setting [9]); 9.31 in test [3] (setting [9]).

Take FTTNIWLKLR: the results for the pKd in test [2] (setting [10]) and in test [3] (setting [10]) were 7.17 and 7.54, respectively.

For the sequence LLAISAVYFK, the pKd was 8.47 in test [4] (setting [7]); 7.92 in test [5] (setting [7]); 6.42 in test [1] (setting [7]); 5.99 in test [2] (setting [7]); 8.60 in test [3] (setting [7]).

Regarding SSYIDFENTK, the pKd in test [4] (setting [7]) was 6.20; in test [5] (setting [7]) it was 9.80; in test [1] (setting [7]), 6.86; in test [2] (setting [7]), 6.41; in test [3] (setting [7]), 7.63.

For ILSKWHTSAR, the pKd is 7.44 in test [4] (setting [7]); 5.45 in test [5] (setting [7]); 6.90 in test [1] (setting [7]); 6.40 in test [2] (setting [7]); 6.07 in test [3] (setting [7]).

DSYTQVCDHR: the pKd in test [2] (source organism: Dengue virus 1 Nauru/West Pac/1974) was 5.74.

Consider ATSSFREKSR, for which the pKd is 7.23 in test [4] (setting [7]); 8.86 in test [5] (setting [7]); 8.44 in test [1] (setting [7]); 6.79 in test [2] (setting [7]); 8.72 in test [3] (setting [7]).

VSVDAMIHK: the pKd was 5.74 in test [4] (setting [7]); 8.61 in test [5] (setting [7]); 5.15 in test [1] (setting [7]); no more than 4.50 in test [2] (setting [7]); 5.84 in test [3] (setting [7]).

Take WSLMYFHRR: the pKd is 9.26 in test [1] (setting [11]) and 9.63 in test [2] (setting [11]).

As to KIPIYSHTER, the pKd in test [4] (setting [7]) is 5.97; in test [5] (setting [7]), 5.94; in test [1] (setting [7]), 7.59; in test [2] (setting [7]), 5.92; in test [3] (setting [7]) it was 5.82.

With ASAFFGMSR, the pKd in test [4] (setting [9]) is 5.50; in test [5] (setting [9]), 6.83; in test [1] (setting [9]), 7.66; in test [2] (setting [9]), no more than 4.38; in test [3] (setting [9]), 6.71.

Take ITAKETLYR: the pKd in test [4] (setting [9]) is 6.88; in test [5] (setting [9]), 7.74; in test [1] (setting [9]), 6.71; in test [2] (setting [9]), 5.97; in test [3] (setting [9]), 7.81.

As to MILMKMKKK, the pKd in test [4] (source organism: Dengue virus 4 Philippines/H241/1956) was 7.06.

Take HILHAYCGIK: the pKd in test [4] (setting [7]) was 6.64; in test [5] (setting [7]), 5.86; in test [1] (setting [7]), 4.87; in test [2] (setting [7]) it was no more than 4.15; in test [3] (setting [7]), 5.56.

Turning to PMFAVGLLFR, the pKd in test [2] (setting [8]) is 7.04.

As for FWKLVDRER, the pKd in test [2] (setting [11]) was 7.35.

In the case of KLMEEYLRR, the pKd in test [4] (setting [7]) was 7.94; in test [5] (setting [7]), 8.01; in test [1] (setting [7]) it was 8.25; in test [2] (setting [7]) it was no more than 4.66; in test [3] (setting [7]), 5.72.

Take LSDIISAEK: the pKd is 6.02 in test [4] (setting [7]); 7.47 in test [5] (setting [7]); 5.74 in test [1] (setting [7]); 4.90 in test [2] (setting [7]); 6.73 in test [3] (setting [7]).

As for VFAQVKQMYK, the pKd is 7.18 in test [4] (setting [9]); 7.22 in test [5] (setting [9]); 6.91 in test [1] (setting [9]); 6.06 in test [2] (setting [9]); 6.75 in test [3] (setting [9]).

Take SVLRAVLPR: the pKd in test [4] (setting [12]) is 6.68; in test [5] (setting [12]), 8.05; in test [1] (setting [12]) it was 7.97; in test [2] (setting [12]) it was 6.27; in test [3] (setting [12]), 7.18.

As for QVIAVEPGK, in test [5] (setting [8]), the negative logarithm of the Kd (pKd) is 6.11.

For the sequence KATTQIAPK, the pKd was 7.34 in test [4] (setting [7]); 8.32 in test [5] (setting [7]); 7.06 in test [1] (setting [7]); no more than 4.41 in test [2] (setting [7]); 5.15 in test [3] (setting [7]).

IIKLPTLFGR: the pKd was 7.05 in test [4] (setting [7]); 6.86 in test [5] (setting [7]); 9.60 in test [1] (setting [7]); 7.76 in test [2] (setting [7]); 7.16 in test [3] (setting [7]).

In the case of AIFLTTLSR, the pKd was 7.21 in test [4] (setting [10]) and 7.18 in test [5] (setting [10]).

Take SILASSLLR: the pKd in test [4] (setting [11]) was 6.14; in test [5] (setting [11]), 6.90.
